According to paper PMC6073767:

B1: Panx2: N86Q-FLAG (protein)
parent chain: MHHLLEQSADMATALLAGEKLRELILPGSQDDKAGALAALLLQLKLELPFDRVVTIGTVLVPILLVTLVFTKNFAEEPIYCYTPHNFTRDQALYARGYCWTELRDALPGVDASLWPSLFEHKFLPYALLAFAAIMYVPALGWEFLASTRLTSELNFLLQEIDNCYHRAAEGRAPKIEKQIQSKGPGITEREKREIIENAEKEKSPEQNLFEKYLERRGRSNFLAKLYLARHVLILLLSVVPISYLCTYYATQKQNEFTCALGASPDGPVGSAGPTVRVSCKLPSVQLQRIIAGVDIVLLCFMNLIILVNLIHLFIFRKSNFIFDKLNKVGIKTRRQWRRSQFCDINILAMFCNENRDHIKSLNRLDFITNESDLMYDNVVRQLLAALAQSNHDTTPTVRDSGIQTVDPSINPAEPDGSAEPPVVKRPRKKMKWIPTSNPLPQPFKEQLAIMRVENSKTEKPKPVRRKTATDTLIAPLLDAGARAAHHYKGSGGDSGPSSAPPAASEKKHTRHFSLDVHPYILGTKKAKTEAVPPALPASRSQEGGFLSQTEECGLGLAAAPTKDAPLPEKEIPYPTEPALPGLPSGGSFHVCSPPAAPAAASLSPGSLGKADPLTILSRNATHPLLHISTLYEAREEEEGGPCAPSDMGDLLSIPPPQQILIATFEEPRTVVSTVEF
B2: Panx2: N86Q (protein)
parent chain: B1 parent chain

Tests used:
[1] = confocal linescan, surface colocalisation, HEK293T co-expression; details: glycan lost; control: Panx2-FLAG
[2] = cell-surface biotinylation, NRK; details: glycan lost; control: wild-type Panx2
[3] = cell-surface biotinylation, AD293; details: glycan lost; control: wild-type Panx2
[4] = cell-surface biotinylation, HEK293T; details: glycan lost; control: wild-type Panx2

| Protein | localisation_or_trafficking [1] | localisation_or_trafficking [2] | localisation_or_trafficking [3] | localisation_or_trafficking, other: surface fraction of total protein [4] |
| --- | --- | --- | --- | --- |
| B1 | decreases |  |  |  |
| B2 |  | decreases | decreases | decreases, ~1 vs approximately 4 |
